Measured values: US20220281976A1 (Alector, published 2022)

T1: mouse CD33 Fc fusion protein (mouse, UniProt Q63994 18-240, limits assumed)
T1 construct: also called mCD33-Fc
T1 sequence: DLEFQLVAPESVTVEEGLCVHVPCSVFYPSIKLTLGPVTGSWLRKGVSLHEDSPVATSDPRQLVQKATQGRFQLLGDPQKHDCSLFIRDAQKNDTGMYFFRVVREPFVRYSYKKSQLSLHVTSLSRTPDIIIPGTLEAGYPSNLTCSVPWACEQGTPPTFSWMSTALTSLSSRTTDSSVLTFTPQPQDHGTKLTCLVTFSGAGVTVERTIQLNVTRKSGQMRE

B1: C-7 (antibody, V domains shown)
VH: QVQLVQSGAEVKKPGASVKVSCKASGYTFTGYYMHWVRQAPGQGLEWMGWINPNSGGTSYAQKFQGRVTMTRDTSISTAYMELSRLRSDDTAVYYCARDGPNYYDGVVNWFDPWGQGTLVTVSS
VL: DIQMTQSPSTLSASVGDRVTITCRASQSISSWLAWYQQKPGKAPKLLIYDASSLESGVPSRFSGSGSGTEFTLTISSLQPDDFATYYCQQARSYPPTFGGGTKVEIK
notes: human IgG1
B2: C-84 (antibody, V domains shown)
VH: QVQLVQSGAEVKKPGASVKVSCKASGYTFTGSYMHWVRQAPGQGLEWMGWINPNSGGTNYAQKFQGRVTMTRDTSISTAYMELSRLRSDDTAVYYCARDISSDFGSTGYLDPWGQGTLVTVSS
VL: DIQMTQSPSTLSASVGDRVTITCRASQSISSWLAWYQQKPGKAPKLLIYDASSLESGVPSRFSGSGSGTEFTLTISSLQPDDFATYYCQQVNRYPFTFGGGTKVEIK
notes: human IgG1
B3: C-79 (antibody, V domains shown)
VH: QVQLVQSGAEVKKPGASVKVSCKASGYTFTSYYIHWVRQAPGQGLEWMGIINPSGGSTSYAQKFQGRVTMTRDTSTSTVYMELSSLRSEDTAVYYCARVSRQQHSMDVWGQGTTVTVSS
VL: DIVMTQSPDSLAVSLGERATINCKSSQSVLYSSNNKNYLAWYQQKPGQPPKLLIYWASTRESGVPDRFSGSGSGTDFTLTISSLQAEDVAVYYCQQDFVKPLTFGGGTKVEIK
notes: human IgG1
B4: C-89 (antibody, V domains shown)
VH: QLQLQESGPGLVKPSETLSLTCTVSGGSISSSSYYWGWIRQPPGKGLEWIGSIYYSGSTYYNPSLKSRVTISVDTSKNQFSLKLSSVTAADTAVYYCAREGPRFDPWGQGTLVTVSS
VL: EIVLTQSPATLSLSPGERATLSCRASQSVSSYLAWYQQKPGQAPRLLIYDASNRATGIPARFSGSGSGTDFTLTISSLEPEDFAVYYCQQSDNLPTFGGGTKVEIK
notes: human IgG1
B5: C-87 (antibody, V domains shown)
VH: QLQLQESGPGLVKPSETLSLTCTVSGGSISSSSYAWGWIRQPPGKGLEWIGSIYYSGSTYYNPSLKSRVTISVDTSKNQFSLKLSSVTAADTAVYYCARDPLYPLTPYGMDVWGQGTTVTVSS
VL: EIVMTQSPATLSLSPGERATLSCRASQSVSSYLAWYQQKPGQAPRLLIYDASNRATGIPARFSGSGSGTDFTLTISSLEPEDFAVYYCQQLSVFPPTFGGGTKVEIK
notes: human IgG1
B6: C-88 (antibody, V domains shown)
VH: QLQLQESGPGLVKPSETLSLTCTVSGGSISSSSYYWGWIRQPPGKGLEWIGSIYYSGSTYYNPSLKSRVTISVDTSKNQFSLKLSSVTAADTAVYYCARLPIYYDSSGYFDYHGMDVWGQGTTVTVSS
VL: EIVLTQSPATLSLSPGERATLSCRASQSVSSYLAWYQQKPGQAPRLLIYDASNRATGIPARFSGSGSGTDFTLTISSLEPEDFAVYYCQQHANHPPTFGGGTKVEIK
notes: human IgG1
B7: C-90 (antibody, V domains shown)
VH: EVQLVESGGGLVQPGGSLRLSCAASGFTFSSYWMSWVRQAPGKGLEWVANINQDGSEKYYVDSVKGRFTISRDNAKNSLYLQMNSLRAEDTAVYYCAREAGAVTGYRWFDPWGQGTLVTVSS
VL: DIQMTQSPSSLSASVGDRVTITCRASQSISSYLNWYQQKPGKAPKLLIYGASSLQSGVPSRFSGSGSGTDFTLTISSLQPEDFATYYCQQQYLTPLTFGGGTKVEIK
notes: human IgG1
B8: C-91 (antibody, V domains shown)
VH: EVQLVESGGGLVQPGGSLRLSCAASGFTFSSYWMSWVRQAPGKGLEWVANIKSDGSEKYYVDSVKGRFTISRDNAKNSLYLQMNSLRAEDTAVYYCARDVGGDYSGSDLASYWGQGTLVTVSS
VL: DIQMTQSPSSLSASVGDRVTITCRASQSISSYLNWYQQKPGKAPKLLIYAASSLQSGVPSRFSGSGSGTDFTLTISSLQPEDFATYYCQQGYDPPLTFGGGTKVEIK
notes: human IgG1
B9: C-109 (antibody, V domains shown)
VH: EVQLVESGGGLVQPGGSLRLSCAASGFTFSSYWMSWVRQAPGKGLEWVANIKSDGSEKYYVDSVKGRFTISRDNAKNSLYLQMNSLRAEDTAVYYCARDVGGDYSGSDLASYWGQGTLVTVSS
VL: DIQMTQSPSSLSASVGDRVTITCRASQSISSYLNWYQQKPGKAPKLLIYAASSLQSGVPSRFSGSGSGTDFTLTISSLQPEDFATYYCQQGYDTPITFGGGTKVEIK
notes: human IgG1

Assays:
[1] = target: T2, human CD33 Fc fusion protein (human, UniProt P20138 18-259); test: RBC adhesion to plate-bound CD33-Fc; antibody 0.5 ug/ml;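 also: Plate-coated CD33-Fc preincubated 1 h with antibody, then red blood cells added for 1 h at room temperature, adherent cells lysed and quantified via peroxidase activity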
T2 construct: also called hCD33-Fc; human CD33/Fc chimera (R&D Systems)
Description: Briefly, 5 ug/ml CD33-Fc was coated overnight at RT in 96 well Immunolon plates, then washed with PBS, blocked for one hour with binding buffer (PBS containing %0.25 BSA 1 mM CaCl₂). CD33 antibodies (0.5 ug/ml or 1.0 ug/ml) or Fabs (25 ug/ml) were bound for one hour at RT with gentle rocking. After removal of unbound antibody, red blood cells were added to each well at a concentration of 3.0×10⁶ cells per ml and incubated at RT for one hour. Unbound RBCs were then carefully washed off 3× with PBS, and water was added to each well for hypotonic lysis of bound RBCs. The plate was transferred to −80° C. for 10 minutes, followed by 37° C. for 15 minutes. Bound RBCs were detected by peroxidase activity, followed by 2N sulfuric acid to stop the reaction.

human CD33 [2] = target: T3, human CD33 (human, UniProt P20138 18-364); test: flow cytometry, human primary monocytes; parameters: reference not given here;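 also: binding of anti-CD33 antibodies at 10 ug/ml to human primary monocytes, 1 h on ice, detected by PE-labelled secondary antibody, flow cytometry readout as mean fluorescence intensity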
T3 construct: CD33 on human primary dendritic cells, macrophages, monocytes and T cells and on CHO cells expressing recombinant human CD33; also called Siglec-3; hCD33

[3] = target: T2, human CD33 Fc fusion protein; test: RBC adhesion to plate-bound CD33-Fc; antibody 1.0 ug/ml;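 also: red blood cells adhering to plate-coated CD33-Fc after 1 h antibody pretreatment, then 1 h at room temperature, bound cells read as peroxidase activity after lysis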
human CD33 [4] = target: T3, human CD33; test: cell-based or functional assay
human CD33 [5] = target: T3, human CD33; test: flow cytometry, human primary macrophages;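 also: binding of CD33 antibodies at 10 µg/ml to human primary macrophages, 1 h on ice, detected with PE-labelled secondary antibody by flow cytometry, reported as MFI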
[6] = target: T1, mouse CD33 Fc fusion protein; test: ForteBio BLI or MSD-SET
[7] = target: T2, human CD33 Fc fusion protein; test: ForteBio BLI or MSD-SET, IgG, avid;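 also: Anti-CD33 IgG affinity by BLI, IgG captured on AHQ sensors with antigen in solution and a one-to-one kinetic fit, or by MSD solution equilibrium titration with quadratic fit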
human CD33 [8] = target: T3, human CD33; test: flow cytometry, human primary T cells;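 also: binding of anti-CD33 antibodies at 10 ug/ml to human primary T cells, 1 h on ice, detected with PE-labelled secondary antibody, read as flow cytometry MFI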
Description: Initial characterization of CD33 antibodies involved determining their ability to bind CD33 expressed on a CHO cell line, on human primary monocytes, human primary macrophages, human primary dendritic cells, and on human primary T cells. Cells were harvested, plated at 10⁶/ml in a 96 well plate, and incubated in 100 ul PBS containing 2% FBS, 2 mM EDTA and 10 ug/ml Mab and Fc blocking reagent for 1 hour in ice. Cells were washed twice and incubated in 100 ul PBS containing 2% FBS, 2 mM EDTA and 5 ug/ml PE-conjugated secondary antibody for 30 minutes on ice. Cells were washed twice in cold PBS and analyze by flow cytometry on a BD FACS Canto. Data analysis and calculation of MFI values was performed with FlowJo (TreeStar) software version 10.0.7.

[9] = target: T4, human monomeric His tagged CD33 protein (human, UniProt P20138 18-259); test: ForteBio BLI or MSD-SET, IgG, monomeric antigen;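 also: BLI: antibodies captured on AHQ sensors, 100 nM antigen association 5 min, dissociation 5 min, 1:1 fit. MSD-SET: antigen fixed at 50 pM, antibody titrated, quadratic fit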
T4 construct: also called hCD33-His

human CD33 [10] = target: T3, human CD33; test: flow cytometry, human primary dendritic cells;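 also: binding of anti-CD33 antibodies (10 ug/ml, 1 h on ice) to human primary dendritic cells, detected with a PE-labelled secondary antibody, reported as flow cytometry MFI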

T3 sequence (P20138 18-364): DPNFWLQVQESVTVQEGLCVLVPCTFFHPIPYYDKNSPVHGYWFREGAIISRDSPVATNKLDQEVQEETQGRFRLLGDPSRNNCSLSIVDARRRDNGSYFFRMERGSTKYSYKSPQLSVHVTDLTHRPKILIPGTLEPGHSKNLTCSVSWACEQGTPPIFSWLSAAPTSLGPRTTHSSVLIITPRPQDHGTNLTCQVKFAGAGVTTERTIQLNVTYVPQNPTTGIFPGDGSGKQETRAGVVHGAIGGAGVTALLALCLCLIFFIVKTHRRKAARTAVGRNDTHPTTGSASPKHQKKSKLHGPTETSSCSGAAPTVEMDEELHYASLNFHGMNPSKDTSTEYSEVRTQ
T4 sequence (P20138 18-259 limits assumed): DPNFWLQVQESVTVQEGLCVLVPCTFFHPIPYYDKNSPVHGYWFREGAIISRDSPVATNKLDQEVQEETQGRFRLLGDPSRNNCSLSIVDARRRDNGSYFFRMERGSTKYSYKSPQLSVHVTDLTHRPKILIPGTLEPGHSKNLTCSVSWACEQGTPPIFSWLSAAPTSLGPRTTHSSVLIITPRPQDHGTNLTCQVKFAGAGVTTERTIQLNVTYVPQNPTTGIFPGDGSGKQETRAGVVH
T2 sequence (P20138 18-259 limits assumed): as above

Row | Percent RBC Binding to CD33 [1] | Monocyte MFI (human CD33 [2]) | Percent RBC Binding to CD33 [3] | Percent CD33 Surface Expression, DC % CD33 (human CD33 [4]) | Percent CD33 Surface Expression, Macrophage % CD33 (human CD33 [4]) | Percent CD33 Surface Expression, Monocyte % CD33 (human CD33 [4]) | Macrophage MFI (human CD33 [5]) | binding result [6] | Kd [7] | T cell MFI (human CD33 [8]) | Kd [9] | DC MFI (human CD33 [10]) | Binder
1 | 122% | 87 | 108% | 66.9% | 97% | 96.5% | 626 | no binding (tested: 100 nM) | 1.01 nM | 52.5 | 3.29 nM | 814 | B1
2 | 96.8% | 532 | 103% | 75.9% |  | 90.4% | 313 | no binding (tested: 100 nM) | 7.39 nM | 95.8 | 62.6 nM | 55 | B2
3 | 45.7% | 815 | 83.5% | 83.1% |  | 91.1% | 654 | no binding (tested: 100 nM) | 2.28 nM | 228 | 11.2 nM | 43 | B3
4 | 20.6% | 1120 | 10.5% | 19.6% | 41.2% | 25.3% | 1420 | no binding (tested: 100 nM) | 1.16 nM | 109 | 4.88 nM | 203 | B4
5 | 29.4% | 971 | 9.5% | 28.4% | 47.5% | 36.1% | 1260 | no binding (tested: 100 nM) | 1.93 nM | 246 | 7.04 nM | 172 | B5
6 | 39.4% | 957 | 10.9% | 18.6% | 41.4% | 28.7% | 1200 | no binding (tested: 100 nM) | 0.734 nM | 204 | 2.7 nM | 178 | B6
7 | 17.2% | 987 | 6.8% | 18.5% | 41.3% | 35.4% | 1260 | no binding (tested: 100 nM) | 1.51 nM | 329 | 5.74 nM | 151 | B7
8 | 17.6% | 893 | 7% | 18.8% | 38.4% | 24.3% | 1230 | no binding (tested: 100 nM) | 1.2 nM | 38.2 | 4.26 nM | 150 | B8
9 | 17.6% | 867 | 8.3% | 30% | 38.9% | 31.1% | 1240 | no binding (tested: 100 nM) | 1.24 nM | 247 | 4.8 nM | 164 | B9
